Test: Neurotoxicity by compound neurological score in the glioblastoma model
Type: in vivo, athymic mice
Settings: TRAIL alone, local administration
Procedure: Animal studies. 5×10^4 U87MG human glioblastoma cells were stereotactically implanted into the right striatum of athymic mice (CD1 nu/nu, Charles River, Sulzfeld, Germany). At day 7 or at day 7 and day 9, mice were locally treated with Apo2L/TRAIL (2 μg/4 μl buffer) and/or Smac (1 mg/4 μl buffer) or buffer only. Tumor cell volumes were measured at day 21 or 35 after tumor cell implantation as previously described. Neurological symptoms (alertness, behaviour, weight loss, focal neurological deficits) were evaluated daily and a compound score of all categories was formed (++: severe deficits, +: deficits, −: no relevant deficits). Statistical significance was assessed using ANOVA.

With “TRAIL: TNF-related apoptosis inducing ligand, death receptor ligand; recombinant human TRAIL (PeproTech)” the “mice that developed neurological deficits” value was 2 of 6.

Source: patent US20050222387A1, “Smac-peptides as therapeutics against cancer and autoimmune diseases” (Deutsches Krebsforschungzentrum Stiftung Des Oeffentlichen …, priority 2002, published 2005)
